Laboratory results published in paper PMC10397247.
Each block holds one binder with its values, some of them ahead of it.

Assays:
[1] = biological target: T1, P6SC2; assay: two-hybrid library CC1; conditions: mean of both orientations;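 further: natural log of median RNA to DNA barcode read ratio; higher means stronger binding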
T1 chain: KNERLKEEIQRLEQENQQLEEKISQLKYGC

[2] = biological target: T2, P8; assay: two-hybrid library CC1; conditions: mean of both orientations;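 further: natural log of median RNA to DNA barcode read ratio; higher means stronger binding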
T2 chain: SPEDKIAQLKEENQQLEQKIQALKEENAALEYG

[3] = biological target: T3, P7mS; assay: two-hybrid library CC1; conditions: mean of both orientations;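 further: natural log of median RNA to DNA barcode read ratio; higher means stronger binding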
T3 chain: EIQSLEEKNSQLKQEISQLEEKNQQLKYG

[4] = biological target: T4, P5mS; assay: two-hybrid library CC1; conditions: mean of both orientations;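 further: natural log of median RNA to DNA barcode read ratio; higher means stronger binding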
T4 chain: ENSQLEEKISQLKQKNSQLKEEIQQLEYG

[5] = biological target: T5, P4; assay: two-hybrid library CC1
T5 chain: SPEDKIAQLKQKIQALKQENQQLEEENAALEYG

[6] = biological target: T6, P8mS; assay: two-hybrid library CC1; conditions: mean of both orientations
T6 chain: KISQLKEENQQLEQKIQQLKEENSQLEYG

[7] = biological target: T7, P6SC1; assay: two-hybrid library CC1; conditions: mean of both orientations
T7 chain: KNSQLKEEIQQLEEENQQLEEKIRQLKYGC

[8] = biological target: T8, P5; assay: two-hybrid library CC1; conditions: mean of both orientations
T8 chain: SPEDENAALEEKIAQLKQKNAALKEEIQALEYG

[9] = biological target: T9, P4mS; assay: two-hybrid library CC1; conditions: mean of both orientations
T9 chain: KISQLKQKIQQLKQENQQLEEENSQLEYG

[10] = biological target: T10, P6; assay: two-hybrid library CC1; conditions: mean of both orientations
T10 chain: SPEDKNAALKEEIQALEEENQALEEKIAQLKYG

[11] = biological target: T11, P5SC2; assay: two-hybrid library CC1; conditions: mean of both orientations
T11 chain: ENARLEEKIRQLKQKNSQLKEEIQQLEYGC

[12] = biological target: T12, P5SC1; assay: two-hybrid library CC1; conditions: mean of both orientations
T12 chain: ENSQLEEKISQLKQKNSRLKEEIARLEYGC

[13] = biological target: T13, P9; assay: two-hybrid library CC1; conditions: mean of both orientations
T13 chain: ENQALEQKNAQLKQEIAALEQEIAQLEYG

[14] = biological target: T14, P6mS; assay: two-hybrid library CC1; conditions: mean of both orientations
T14 chain: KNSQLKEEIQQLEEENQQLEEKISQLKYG

[15] = biological target: T15, P7; assay: two-hybrid library CC1; conditions: mean of both orientations
T15 chain: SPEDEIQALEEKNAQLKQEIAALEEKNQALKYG

[16] = biological target: T16, 4H2330-AA; assay: two-hybrid library CCmax; conditions: mean of both orientations
T16 chain: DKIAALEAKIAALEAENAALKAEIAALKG

[17] = biological target: T17, 4H2124-AA; assay: two-hybrid library CCmax; conditions: mean of both orientations
T17 chain: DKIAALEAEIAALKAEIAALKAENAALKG

[18] = biological target: T18, 4H_BCR; assay: two-hybrid library CCmax; conditions: mean of both orientations
T18 chain: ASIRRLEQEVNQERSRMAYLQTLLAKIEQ

[19] = biological target: T19, 4H2253-AA; assay: two-hybrid library CCmax; conditions: mean of both orientations
T19 chain: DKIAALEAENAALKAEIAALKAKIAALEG

[20] = biological target: T20, 4H_APH; assay: two-hybrid library CCmax
T20 chain: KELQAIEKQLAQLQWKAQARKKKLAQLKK

[21] = biological target: T21, 4H3073-AA; assay: two-hybrid library CCmax; conditions: mean of both orientations
T21 chain: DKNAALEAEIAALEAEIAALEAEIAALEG

[22] = biological target: T22, 4H2165-AA; assay: two-hybrid library CCmax; conditions: mean of both orientations
T22 chain: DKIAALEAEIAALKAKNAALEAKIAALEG

[23] = biological target: T23, 4H347-AA; assay: two-hybrid library CCmax; conditions: mean of both orientations
T23 chain: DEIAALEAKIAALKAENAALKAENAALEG

[24] = biological target: T24, 4H3001-AA; assay: two-hybrid library CCmax; conditions: mean of both orientations
T24 chain: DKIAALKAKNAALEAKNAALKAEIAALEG

[25] = biological target: T25, 4H452-AA; assay: two-hybrid library CCmax; conditions: mean of both orientations
T25 chain: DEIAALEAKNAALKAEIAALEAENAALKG

[26] = biological target: T26, 4H2592-AA; assay: two-hybrid library CCmax; conditions: mean of both orientations
T26 chain: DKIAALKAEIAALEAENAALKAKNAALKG

[27] = biological target: GCN2_T; assay: two-hybrid library CCmax
[28] = biological target: T27, 4H2931-AA; assay: two-hybrid library CCmax; conditions: mean of both orientations
T27 chain: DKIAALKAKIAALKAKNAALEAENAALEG

[29] = biological target: T28, 4H3015-AA; assay: two-hybrid library CCmax; conditions: mean of both orientations
T28 chain: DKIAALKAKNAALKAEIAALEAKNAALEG

[30] = biological target: 4H_GCN4; assay: two-hybrid library CCmax
[31] = biological target: T29, 4H1828-AA; assay: two-hybrid library CCmax
T29 chain: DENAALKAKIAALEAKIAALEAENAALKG

[32] = biological target: T30, 4H56-AA; assay: two-hybrid library CCmax; conditions: mean of both orientations
T30 chain: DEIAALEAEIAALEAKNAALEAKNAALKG

[33] = biological target: T31, 4H1930-AA; assay: two-hybrid library CCmax; conditions: mean of both orientations
T31 chain: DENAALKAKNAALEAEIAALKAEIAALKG

[34] = biological target: T32, 4H3438-AA; assay: two-hybrid library CCmax; conditions: mean of both orientations
T32 chain: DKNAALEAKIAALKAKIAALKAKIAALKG

[35] = biological target: T33, 4H2343-AA; assay: two-hybrid library CCmax; conditions: mean of both orientations
T33 chain: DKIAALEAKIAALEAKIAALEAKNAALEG

[36] = biological target: T34, 4H2774-AA; assay: two-hybrid library CCmax; conditions: mean of both orientations
T34 chain: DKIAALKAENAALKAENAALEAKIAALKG

[37] = biological target: T35, 4H249-AA; assay: two-hybrid library CCmax; conditions: mean of both orientations
T35 chain: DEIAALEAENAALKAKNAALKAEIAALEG

[38] = biological target: T36, 4H2466-AA; assay: two-hybrid library CCmax; conditions: mean of both orientations
T36 chain: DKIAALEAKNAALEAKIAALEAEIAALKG

[39] = biological target: T37, 4H406-AA; assay: two-hybrid library CCmax; conditions: mean of both orientations
T37 chain: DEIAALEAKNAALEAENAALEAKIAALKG

[40] = biological target: T38, 4H2732-AA; assay: two-hybrid library CCmax; conditions: mean of both orientations
T38 chain: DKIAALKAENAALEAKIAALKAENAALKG

Chain of 4H_GCN4 (chain, as listed by the source): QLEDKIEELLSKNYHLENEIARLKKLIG

Binder: SPEDKIAQLKQKIQALKQENQQLEEENAALEYG [P4]
interaction score [1]: -2.66
interaction score [2]: -2.99
interaction score [3]: -2.77
interaction score [4]: -2.91
interaction score [5]: -3
interaction score [6]: -2.82
interaction score [7]: -2.87
interaction score [8]: -3.06
interaction score [9]: -2.91
interaction score [10]: -2.83
interaction score [11]: -2.74
interaction score [12]: -2.83
interaction score [13]: -2.29
interaction score [14]: -2.85
interaction score [15]: -2.74

interaction score [16]: -1.45
interaction score [17]: -1.65
interaction score [18]: -2.28
interaction score [19]: -1.32
interaction score [20]: -1.13
interaction score [21]: -1.08
interaction score [22]: -1.37
interaction score [23]: -0.947
interaction score [24]: -1.55
interaction score [25]: -1.35
interaction score [26]: -0.581
interaction score [27]: -2.49
interaction score [28]: -2.02
interaction score [29]: -1.83
interaction score [30]: -2.2
interaction score [31]: 1.34
interaction score [32]: -1.03
interaction score [33]: -1.5
interaction score [34]: -1.01
interaction score [35]: -1.69
interaction score [36]: -1.37
interaction score [37]: -1.5
interaction score [38]: -1.4
interaction score [39]: -1.44
interaction score [40]: -1.51
Binder: DENAALKAKIAALEAKIAALEAENAALKG [4H1828-AA]
